According to IntAct's records for PubMed 15350218:

Key:
syt2_rat Syt2 [1] = target: syt2_rat Syt2 (UniProt P29101)
syt2_rat Syt2 [2] = target: syt2_rat Syt2 (UniProt P29101); remark: listed apart in the source

syt2_rat Syt2, sequence (P29101 whole entry): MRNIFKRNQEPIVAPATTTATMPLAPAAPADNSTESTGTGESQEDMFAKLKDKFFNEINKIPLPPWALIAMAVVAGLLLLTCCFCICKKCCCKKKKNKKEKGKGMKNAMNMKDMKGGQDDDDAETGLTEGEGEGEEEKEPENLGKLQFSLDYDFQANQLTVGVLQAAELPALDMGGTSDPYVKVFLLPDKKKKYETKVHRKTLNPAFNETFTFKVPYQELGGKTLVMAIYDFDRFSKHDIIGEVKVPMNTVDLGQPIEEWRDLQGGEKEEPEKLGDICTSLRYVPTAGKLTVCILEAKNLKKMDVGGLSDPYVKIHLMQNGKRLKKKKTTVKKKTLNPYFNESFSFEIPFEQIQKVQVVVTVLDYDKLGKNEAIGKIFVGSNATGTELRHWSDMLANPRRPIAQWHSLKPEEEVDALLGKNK

Substance	effect of a mutation on the interaction (syt2_rat Syt2 [1])	effect of a mutation on the interaction (syt2_rat Syt2 [2])
Serine/threonine-protein kinase WNK1 (Rattus norvegicus (Rat)), Q9JIH7 V318D	decreasing interaction	
Serine/threonine-protein kinase WNK1 (Rattus norvegicus (Rat)), Q9JIH7 V318E		decreasing interaction
